Measured values reported in article PMC13625576.

Key:
Assay in all cases: SPR
[1] = target: 14A Fab G32R mutant (mouse)
[2] = target: 16A Fab R32G mutant (mouse)
[3] = target: 16A Fab W34F mutant (mouse)

Kd [1] | koff [1] | kon [1] | Kd [2] | koff [2] | kon [2] | Kd [3] | koff [3] | kon [3] | Substance
128 nM | 0.0229 s⁻¹ | 180000 M⁻¹ s⁻¹ | 168 nM | 0.0294 s⁻¹ | 174000 M⁻¹ s⁻¹ | 3910 nM | 0.337 s⁻¹ | 86200 M⁻¹ s⁻¹ | Ser-glycosylated MUC1 peptide RPAPGS(GalNAc)TAPPAHG
 | 0.00159 s⁻¹ | 314000 M⁻¹ s⁻¹ | 22.9 nM | 0.00823 s⁻¹ | 359000 M⁻¹ s⁻¹ | 1220 nM | 0.09 s⁻¹ | 73600 M⁻¹ s⁻¹ | Thr-glycosylated MUC1 peptide RPAPGST(GalNAc)APPAHG
4.5 nM | 0.00137 s⁻¹ | 303000 M⁻¹ s⁻¹ |  | 0.00183 s⁻¹ | 534000 M⁻¹ s⁻¹ | 1130 nM | 0.0901 s⁻¹ | 79700 M⁻¹ s⁻¹ | doubly glycosylated MUC1 peptide RPAPGS(GalNAc)T(GalNAc)APPAHG
122 nM | 0.0233 s⁻¹ | 191000 M⁻¹ s⁻¹ | 326 nM | 0.0532 s⁻¹ | 163000 M⁻¹ s⁻¹ | 3430 nM | 0.295 s⁻¹ | 86200 M⁻¹ s⁻¹ | nonglycosylated MUC1 peptide …
